Measured values taken from PMC5645467.

Target: ΔIBB-importin α1 (as used for ITC) (mouse), P52293
Assay: ITC; nano-ITC, 20 °C; GST-RCC1 (300 µM) injected in 2.0 µl increments into 195 µl of ΔIBB-importin α3 or α1 (100 µM); 20 mM Tris-HCl pH 8.0, 150 mM NaCl, 5 mM BME, 0.1 mM PMSF; single set of binding sites model; triplicate
Settings: remark: other sources report otherwise

B1: GST-RCC1 (full-length human RCC1, wild type), P18754 1-421 (natural protein)
chain: MSPKRIAKRRSPPADAIPKSKKVKVSHRSHSTEPGLVLTLGQGDVGQLGLGENVMERKKPALVSIPEDVVQAEAGGMHTVCLSKSGQVYSFGCNDEGALGRDTSVEGSEMVPGKVELQEKVVQVSAGDSHTAALTDDGRVFLWGSFRDNNGVIGLLEPMKKSMVPVQVQLDVPVVKVASGNDHLVMLTADGDLYTLGCGEQGQLGRVPELFANRGGRQGLERLLVPKCVMLKSRGSRGHVRFQDAFCGAYFTFAISHEGHVYGFGLSNYHQLGTPGTESCFIPQNLTSFKNSTKSWVGFSGGQHHTVCMDSEGKAYSLGRAEYGRLGLGEGAEEKSIPTLISRLPAVSSVACGASVGYAVTKDGRVFAWGMGTNYQLGTGQDEDAWSPVEMMGKQLENRVVLSVSSGGQHTVLLVKDKEQS
- Kd: 5.4 µM
- stoichiometry N: < 1
